Patent US12194076B2, “Methods and compositions for treating myelofibrosis” (Acceleron Pharma Inc., priority 2016, dated 2025)
Changes are numbered by the printed parent chain. In names and notes the source's numbering stands.

Columns and labels:
C57BL/6 mice = test: GDF trap in ruxolitinib treated animals, hematological parameters; format: in vivo; details: 60 mg/kg twice daily, four weeks
From the text: Ruxolitinib is a Janus kinase inhibitor that has been approved for the treatment of intermediate or high-risk myelofibrosis. […] However, a variety of hematological side effects have been observed in patients treated with ruxolitinib including, for example, anemia. Nine month old C57BL/6 mice were used to understand the effects of ActRIIB(L79D 25-131)-Fc treatment on various hematological parameters in ruxolitinib treated mice.
For this study, treatment was initiated at 6-7 months of age. Mice were placed into one of four groups: i) treatment with ActRIIB(L79D 25-131)-Fc on a dosing schedule of 10 mg/kg twice weekly; ii) treatment with ruxolitinib on a dosing schedule of 60 mg/kg twice daily; iii) treatment with ActRIIB(L79D 25-131)-Fc on a dosing schedule of 10 mg/kg twice weekly and ruxolitinib on a dosing schedule of 60 mg/kg twice daily; and iv) treatment with vehicle (TBS) twice weekly (i.e., control animals).

[1] = system: myelofibrosis patients with splenomegaly; details: cited from earlier work
Activin A [2] = molecular target: T1, Activin A (Homo sapiens, UniProt P08476); test: Biacore steady-state affinity of ActRIIB-hFc proteins for activin A; format: binding; details: compared to counterparts lacking the L79D substitution
T1 sequence (P08476 311-426): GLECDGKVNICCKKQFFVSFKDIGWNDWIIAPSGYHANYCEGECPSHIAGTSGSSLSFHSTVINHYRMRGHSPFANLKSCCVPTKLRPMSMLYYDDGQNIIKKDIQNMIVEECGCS
Protocol: (§1) Affinities of several ligands for ActRIIB(25-131)-hFc and its full-length counterpart ActRIIB(20-134)-hFc were evaluated in vitro with a Biacore™ instrument, and the results are summarized in the table below. Kd values were obtained by steady-state affinity fit due to very rapid association and dissociation of the complex, which prevented accurate determination of kon and koff. ActRIIB(25-131)-hFc bound activin A, activin B, and GDF11 with high affinity.
(§2) The affinity of GDF traps and other ActRIIB-hFc proteins for several ligands was evaluated in vitro with a Biacore™ instrument. Kd values were obtained by steady-state affinity fit due to the very rapid association and dissociation of the complex, which prevented accurate determination of kon and koff.

Activin B = molecular target: T2, Activin B (Homo sapiens, UniProt P09529); test: Biacore steady-state affinity of ActRIIB-hFc proteins for activin B; format: binding; details: compared to counterparts lacking the L79D substitution
T2 sequence (P09529 293-407): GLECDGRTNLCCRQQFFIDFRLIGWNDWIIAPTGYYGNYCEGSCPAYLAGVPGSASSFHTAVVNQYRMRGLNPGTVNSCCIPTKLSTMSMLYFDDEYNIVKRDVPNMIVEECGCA
Protocol: as §1, §2

GDF11 [3] = molecular target: T3, GDF11 (Homo sapiens, UniProt O95390); test: Biacore steady-state affinity of ActRIIB-hFc proteins for GDF11; format: binding; details: compared to counterparts lacking the L79D substitution
T3 sequence (O95390 299-407): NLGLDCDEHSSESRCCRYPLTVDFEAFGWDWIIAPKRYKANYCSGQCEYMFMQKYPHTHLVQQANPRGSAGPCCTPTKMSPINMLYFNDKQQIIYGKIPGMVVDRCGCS
Protocol: as §1, §2

GDF8 = molecular target: T4, GDF8 (Homo sapiens, UniProt O14793); test: Biacore assay, receptor captured with anti-hFc antibody, GDF8 injected; format: binding; details: for Koff (1/s), GDF8: receptor captured via anti-hFc antibody; for myostatin binding, in words: cell-free Biacore assay
T4 sequence (O14793 267-375): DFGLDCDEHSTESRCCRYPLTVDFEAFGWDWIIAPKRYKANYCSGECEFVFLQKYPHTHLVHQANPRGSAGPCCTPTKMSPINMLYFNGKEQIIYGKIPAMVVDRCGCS
Protocol: (§3) Binding of certain ActRIIB-Fc proteins and GDF traps to ligands was tested in a Biacore™ assay.
(§4) The ActRIIB-Fc variants or wild-type protein were captured onto the system using an anti-hFc antibody. Ligands were injected and flowed over the captured receptor proteins.

Activin A [4] = molecular target: T1, Activin A; test: Biacore assay, receptor captured with anti-hFc antibody, activin A injected; format: binding; details: for Koff (1/s), Activin A / Kon (1/Ms), Activin A / KD (M), Activin A: receptor captured via anti-hFc antibody; for binding to activin A, in words: cell-free Biacore assay
Protocol: as §3, §4

GDF11 [5] = molecular target: T3, GDF11; test: Biacore assay, receptor captured with anti-hFc antibody, GDF11 injected; format: binding; details: for GDF11 binding, in words: cell-free Biacore assay; for Koff (1/s), GDF11: receptor captured via anti-hFc antibody
Protocol: as §3, §4

GDF11 [6] = molecular target: T3, GDF11; test: A-204 reporter gene assay, inhibition of GDF-11 signaling; format: cell-based; set-up: host or cells: added to A-204 cells (human rhabdomyosarcoma)
From the text: (§5) An A-204 reporter gene assay was used to evaluate the effects of ActRIIB-Fc proteins and GDF traps on signaling by GDF-11 and activin A. Cell line: human rhabdomyosarcoma (derived from muscle). Reporter vector: pGL3(CAGA)12 (described in Dennler et al, 1998, EMBO 17: 3091-3100). The CAGA12 motif is present in TGF-beta responsive genes (e.g., PAI-1 gene), so this vector is of general use for factors signaling through SMAD2 and 3.
(§6) Day 1: Split A-204 cells into 48-well plate.
(§7) Day 2: A-204 cells transfected with 10 ug pGL3(CAGA)12 or pGL3(CAGA)12(10 ug)+pRLCMV (1 μg) and Fugene.
(§8) Day 3: Add factors (diluted into medium+0.1% BSA). Inhibitors need to be preincubated with factors for 1 hr before adding to cells. Six hrs later, cells were rinsed with PBS and lysed.
(§9) This is followed by a luciferase assay.
(§10) Activity of ActRIIB-Fc proteins and GDF traps was tested in a cell-based assay as described above. Some variants were tested in different C-terminal truncation constructs. As discussed above, truncations of five or fifteen amino acids caused reduction in activity.

Activin A [7] = molecular target: T1, Activin A; test: A-204 reporter gene assay, inhibition of activin A signaling; format: cell-based; set-up: host or cells: added to A-204 cells (human rhabdomyosarcoma)
From the text: as §5, §6, §7, §8, §9, §10

## N#CC[C@H](C1CCCC1)n1cc(-c2ncnc3[nH]ccc23)cn1 [ruxolitinib]
C57BL/6 mice
  decrease of hemoglobin levels compared to control animals: ~4%
  decrease of red blood cell levels compared to control animals: ~4%

## O=C1CCC(N2C(=O)c3ccccc3C2=O)C(=O)N1 (stereo not drawn) [thalidomide]
[1]
  spleen response rate: < 20%

## NC(=O)NO [HC, Hydroxycarbamide]
[1]; Martinez-Trillos et al. (2010)
  patients with reductions in spleen size from 25%-50%: up to 35%

## Nc1cccc2c1CN(C1CCC(=O)NC1=O)C2=O (stereo not drawn) [lenalidomide]
[1]
  spleen response rate: 33%

## Nc1nc(Cl)nc2c1ncn2[C@H]1C[C@H](O)[C@@H](CO)O1 [cladribine]
[1]
  spleen response rate: up to 50%

## ActRIIB(25-131)-hFc: human ActRIIB extracellular domain residues 25-131 fused to human Fc via three glycine residues, mature SEQ ID NO: 28
Activin A [2]
  activin A binding, in words: high affinity
Activin B
  activin B binding, in words: high affinity
GDF11 [3]
  GDF11 binding, in words: high affinity

B1: ActRIIB(R64K 20-129)-hFc: ActRIIB-hFc variant, residues 20-129, R64K substitution (protein)
chain: GRGEAETRECIYYNANWELERTNQSGLERCEGEQDKRLHCYASWKNSSGTIELVKKGCWLDDFNCYDRQECVATEENPQVYFCCCEGNFCNERFTHLPEAGGPEVTYEPPGGGTHTCPPCPAPELLGGPSVFLFPPKPKDTLMISRTPEVTCVVVDVSHEDPEVKFNWYVDGVEVHNAKTKPREEQYNSTYRVVSVLTVLHQDWLNGKEYKCKVSNKALPVPIEKTISKAKGQPREPQVYTLPPSREEMTKNQVSLTCLVKGFYPSDIAVEWESNGQPENNYKTTPPVLDSDGSFFLYSKLTVDKSRWQQGNVFSCSVMHEALHNHYTQKSLSLSPGK
GDF8
  Koff (1/s), GDF8: 0.000209 s⁻¹
Activin A [4]
  Koff (1/s), Activin A: 0.000628 s⁻¹
  Kon (1/Ms), Activin A: 7.46e+06 M⁻¹ s⁻¹

B2: ActRIIB(L79D 20-134)-hFc: GDF trap: ActRIIB amino acids 20-134 with L79D substitution fused to human Fc, SEQ ID NO: 29 (protein)
chain: GRGEAETRECIYYNANWELERTNQSGLERCEGEQDKRLHCYASWRNSSGTIELVKKGCWDDDFNCYDRQECVATEENPQVYFCCCEGNFCNERFTHLPEAGGPEVTYEPPPTAPTGGGTHTCPPCPAPELLGGPSVFLFPPKPKDTLMISRTPEVTCVVVDVSHEDPEVKFNWYVDGVEVHNAKTKPREEQYNSTYRVVSVLTVLHQDWLNGKEYKCKVSNKALPVPIEKTISKAKGQPREPQVYTLPPSREEMTKNQVSLTCLVKGFYPSDIAVEWESNGQPENNYKTTPPVLDSDGSFFLYSKLTVDKSRWQQGNVFSCSVMHEALHNHYTQKSLSLSPGK
GDF11 [5]
  GDF11 binding, in words: retains
  Koff (1/s), GDF11: 0.000439 s⁻¹
GDF8
  myostatin binding, in words: retains
  Koff (1/s), GDF8: 0.00083 s⁻¹
Activin A [4]
  binding to activin A, in words: markedly decreased (non-quantifiable)
  KD (M), Activin A: Low binding
GDF11 [6]
  inhibition of GDF-11 activity, in words: almost wild-type
Activin A [7]
  inhibition of activin A activity, in words: substantial loss

B3: ActRIIB(P129S, P130R 20-134)-hFc: ActRIIB(20-134)-hFc variant with P129S and P130R substitutions (protein)
chain: B2 chain with D60L, P110S, P111R
GDF8
  Koff (1/s), GDF8: 0.00018 s⁻¹
Activin A [4]
  Koff (1/s), Activin A: 0.000417 s⁻¹
  Kon (1/Ms), Activin A: 5.02e+06 M⁻¹ s⁻¹

B4: ActRIIB(K74A 20-134)-hFc: ActRIIB(20-134)-hFc variant with K74A substitution (protein)
chain: B2 chain with K55A, D60L
GDF8
  Koff (1/s), GDF8: 2.03e-05 s⁻¹

B5: ActRIIB(L79E 20-134)-hFc: GDF trap form with a glutamate rather than an aspartate at position 79, human Fc fusion (protein)
chain: B2 chain with D60E
GDF11 [5]
  GDF11 binding, in words: retains
  Koff (1/s), GDF11: 0.000274 s⁻¹
GDF8
  myostatin binding, in words: retains
  Koff (1/s), GDF8: 0.0009 s⁻¹
Activin A [4]
  binding to activin A, in words: markedly decreased (non-quantifiable)
  KD (M), Activin A: Low binding
GDF11 [6]
  inhibition of GDF-11 activity, in words: almost wild-type
Activin A [7]
  inhibition of activin A activity, in words: substantial loss

B6: ActRIIB(A24N 20-134)-hFc: ActRIIB(20-134)-hFc variant with A24N substitution (protein)
chain: B2 chain with A5N, D60L
GDF11 [5]
  Koff (1/s), GDF11: 6.35e-05 s⁻¹
Activin A [4]
  Koff (1/s), Activin A: 0.000346 s⁻¹
  Kon (1/Ms), Activin A: 3.34e+06 M⁻¹ s⁻¹

B7: ActRIIB(R64K 20-134)-hFc: ActRIIB(20-134)-hFc variant with R64K substitution (protein)
chain: B2 chain with R45K, D60L
GDF11 [5]
  Koff (1/s), GDF11: 2.41e-05 s⁻¹
GDF8
  Koff (1/s), GDF8: 4.71e-05 s⁻¹
Activin A [4]
  Koff (1/s), Activin A: 0.000325 s⁻¹
  Kon (1/Ms), Activin A: 6.82e+06 M⁻¹ s⁻¹
